From article PMC5548930

T1: C-terminally biotinylated endothelin-1
T1 chain: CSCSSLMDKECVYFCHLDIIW

T2: Gαi3 protein, P08754
T2 chain: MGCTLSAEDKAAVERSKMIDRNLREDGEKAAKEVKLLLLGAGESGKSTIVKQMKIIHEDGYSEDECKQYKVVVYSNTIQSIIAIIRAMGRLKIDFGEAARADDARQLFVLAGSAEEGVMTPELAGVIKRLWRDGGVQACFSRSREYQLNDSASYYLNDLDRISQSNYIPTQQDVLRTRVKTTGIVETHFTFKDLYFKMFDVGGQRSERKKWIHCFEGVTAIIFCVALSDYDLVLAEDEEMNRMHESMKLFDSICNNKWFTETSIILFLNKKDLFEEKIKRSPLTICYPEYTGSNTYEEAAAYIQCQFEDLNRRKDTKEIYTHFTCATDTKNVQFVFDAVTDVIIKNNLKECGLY

B1: wild type P9-ETA (human endothelin receptor type A with N-terminal P9 fusion), P25101 G261W (protein)
chain: DNPERYSTNLSNHVDDFTTFRGTELSFLVTTHQPTNLVLPSNGSMHNYCPQQTKITSAFKYINTVISCTIFIVGMVGNATLLRIIYQNKCMRNGPNALIASLALGDLIYVVIDLPINVFKLLAGRWPFDHNDFGVFLCKLFPFLQKSSVGITVLNLCALSVDRYRAVASWSRVQGIGIPLVTAIEIVSIWILSFILAIPEAIGFVMVPFEYRGEQHKTCMLNATSKFMEFYQDVKDWWLFWFYFCMPLVCTAIFYTLMTCEMLNRRNGSLRIALSEHLKQRREVAKTVFCLVVIFALCWFPLHLSRILKKTVYNEMDKNRCELLSFLLLMDYIGINLATMNSCINPIALYFVSKKFKNCFQSCLCCCCYQSKSLMTSVPMNGTSIQWKNHDQNNHNTDRSSHKDSMN
B2: wild type P9-ETA (human endothelin receptor type A with N-terminal P9 fusion), P25101 C69S (protein)
chain: DNPERYSTNLSNHVDDFTTFRGTELSFLVTTHQPTNLVLPSNGSMHNYSPQQTKITSAFKYINTVISCTIFIVGMVGNATLLRIIYQNKCMRNGPNALIASLALGDLIYVVIDLPINVFKLLAGRWPFDHNDFGVFLCKLFPFLQKSSVGITVLNLCALSVDRYRAVASWSRVQGIGIPLVTAIEIVSIWILSFILAIPEAIGFVMVPFEYRGEQHKTCMLNATSKFMEFYQDVKDWWLFGFYFCMPLVCTAIFYTLMTCEMLNRRNGSLRIALSEHLKQRREVAKTVFCLVVIFALCWFPLHLSRILKKTVYNEMDKNRCELLSFLLLMDYIGINLATMNSCINPIALYFVSKKFKNCFQSCLCCCCYQSKSLMTSVPMNGTSIQWKNHDQNNHNTDRSSHKDSMN
B3: wild type P9-ETA (human endothelin receptor type A with N-terminal P9 fusion), P25101 F346C (protein)
chain: DNPERYSTNLSNHVDDFTTFRGTELSFLVTTHQPTNLVLPSNGSMHNYCPQQTKITSAFKYINTVISCTIFIVGMVGNATLLRIIYQNKCMRNGPNALIASLALGDLIYVVIDLPINVFKLLAGRWPFDHNDFGVFLCKLFPFLQKSSVGITVLNLCALSVDRYRAVASWSRVQGIGIPLVTAIEIVSIWILSFILAIPEAIGFVMVPFEYRGEQHKTCMLNATSKFMEFYQDVKDWWLFGFYFCMPLVCTAIFYTLMTCEMLNRRNGSLRIALSEHLKQRREVAKTVFCLVVIFALCWFPLHLSRILKKTVYNEMDKNRCELLSCLLLMDYIGINLATMNSCINPIALYFVSKKFKNCFQSCLCCCCYQSKSLMTSVPMNGTSIQWKNHDQNNHNTDRSSHKDSMN
B4: wild type P9-ETA (human endothelin receptor type A with N-terminal P9 fusion), P25101 F161L (protein)
chain: DNPERYSTNLSNHVDDFTTFRGTELSFLVTTHQPTNLVLPSNGSMHNYCPQQTKITSAFKYINTVISCTIFIVGMVGNATLLRIIYQNKCMRNGPNALIASLALGDLIYVVIDLPINVFKLLAGRWPFDHNDFGVFLCKLLPFLQKSSVGITVLNLCALSVDRYRAVASWSRVQGIGIPLVTAIEIVSIWILSFILAIPEAIGFVMVPFEYRGEQHKTCMLNATSKFMEFYQDVKDWWLFGFYFCMPLVCTAIFYTLMTCEMLNRRNGSLRIALSEHLKQRREVAKTVFCLVVIFALCWFPLHLSRILKKTVYNEMDKNRCELLSFLLLMDYIGINLATMNSCINPIALYFVSKKFKNCFQSCLCCCCYQSKSLMTSVPMNGTSIQWKNHDQNNHNTDRSSHKDSMN
B5: wild type P9-ETA (human endothelin receptor type A with N-terminal P9 fusion), P25101 N29D (protein)
chain: DNPERYSTDLSNHVDDFTTFRGTELSFLVTTHQPTNLVLPSNGSMHNYCPQQTKITSAFKYINTVISCTIFIVGMVGNATLLRIIYQNKCMRNGPNALIASLALGDLIYVVIDLPINVFKLLAGRWPFDHNDFGVFLCKLFPFLQKSSVGITVLNLCALSVDRYRAVASWSRVQGIGIPLVTAIEIVSIWILSFILAIPEAIGFVMVPFEYRGEQHKTCMLNATSKFMEFYQDVKDWWLFGFYFCMPLVCTAIFYTLMTCEMLNRRNGSLRIALSEHLKQRREVAKTVFCLVVIFALCWFPLHLSRILKKTVYNEMDKNRCELLSFLLLMDYIGINLATMNSCINPIALYFVSKKFKNCFQSCLCCCCYQSKSLMTSVPMNGTSIQWKNHDQNNHNTDRSSHKDSMN
B6: wild type P9-ETA (human endothelin receptor type A with N-terminal P9 fusion), P25101 L59P (protein)
chain: DNPERYSTNLSNHVDDFTTFRGTELSFLVTTHQPTNLVPPSNGSMHNYCPQQTKITSAFKYINTVISCTIFIVGMVGNATLLRIIYQNKCMRNGPNALIASLALGDLIYVVIDLPINVFKLLAGRWPFDHNDFGVFLCKLFPFLQKSSVGITVLNLCALSVDRYRAVASWSRVQGIGIPLVTAIEIVSIWILSFILAIPEAIGFVMVPFEYRGEQHKTCMLNATSKFMEFYQDVKDWWLFGFYFCMPLVCTAIFYTLMTCEMLNRRNGSLRIALSEHLKQRREVAKTVFCLVVIFALCWFPLHLSRILKKTVYNEMDKNRCELLSFLLLMDYIGINLATMNSCINPIALYFVSKKFKNCFQSCLCCCCYQSKSLMTSVPMNGTSIQWKNHDQNNHNTDRSSHKDSMN
B7: wild type P9-ETA (human endothelin receptor type A with N-terminal P9 fusion), P25101 K140I (protein)
chain: DNPERYSTNLSNHVDDFTTFRGTELSFLVTTHQPTNLVLPSNGSMHNYCPQQTKITSAFKYINTVISCTIFIVGMVGNATLLRIIYQNKCMRNGPNALIASLALGDLIYVVIDLPINVFILLAGRWPFDHNDFGVFLCKLFPFLQKSSVGITVLNLCALSVDRYRAVASWSRVQGIGIPLVTAIEIVSIWILSFILAIPEAIGFVMVPFEYRGEQHKTCMLNATSKFMEFYQDVKDWWLFGFYFCMPLVCTAIFYTLMTCEMLNRRNGSLRIALSEHLKQRREVAKTVFCLVVIFALCWFPLHLSRILKKTVYNEMDKNRCELLSFLLLMDYIGINLATMNSCINPIALYFVSKKFKNCFQSCLCCCCYQSKSLMTSVPMNGTSIQWKNHDQNNHNTDRSSHKDSMN
B8: wild type P9-ETA (human endothelin receptor type A with N-terminal P9 fusion), P25101 S213L (protein)
chain: DNPERYSTNLSNHVDDFTTFRGTELSFLVTTHQPTNLVLPSNGSMHNYCPQQTKITSAFKYINTVISCTIFIVGMVGNATLLRIIYQNKCMRNGPNALIASLALGDLIYVVIDLPINVFKLLAGRWPFDHNDFGVFLCKLFPFLQKSSVGITVLNLCALSVDRYRAVASWSRVQGIGIPLVTAIEIVSIWILLFILAIPEAIGFVMVPFEYRGEQHKTCMLNATSKFMEFYQDVKDWWLFGFYFCMPLVCTAIFYTLMTCEMLNRRNGSLRIALSEHLKQRREVAKTVFCLVVIFALCWFPLHLSRILKKTVYNEMDKNRCELLSFLLLMDYIGINLATMNSCINPIALYFVSKKFKNCFQSCLCCCCYQSKSLMTSVPMNGTSIQWKNHDQNNHNTDRSSHKDSMN
B9: wild type P9-ETA (human endothelin receptor type A with N-terminal P9 fusion), P25101 M65K (protein)
chain: DNPERYSTNLSNHVDDFTTFRGTELSFLVTTHQPTNLVLPSNGSKHNYCPQQTKITSAFKYINTVISCTIFIVGMVGNATLLRIIYQNKCMRNGPNALIASLALGDLIYVVIDLPINVFKLLAGRWPFDHNDFGVFLCKLFPFLQKSSVGITVLNLCALSVDRYRAVASWSRVQGIGIPLVTAIEIVSIWILSFILAIPEAIGFVMVPFEYRGEQHKTCMLNATSKFMEFYQDVKDWWLFGFYFCMPLVCTAIFYTLMTCEMLNRRNGSLRIALSEHLKQRREVAKTVFCLVVIFALCWFPLHLSRILKKTVYNEMDKNRCELLSFLLLMDYIGINLATMNSCINPIALYFVSKKFKNCFQSCLCCCCYQSKSLMTSVPMNGTSIQWKNHDQNNHNTDRSSHKDSMN
B10: wild type P9-ETA (human endothelin receptor type A with N-terminal P9 fusion), P25101 D35N (protein)
chain: DNPERYSTNLSNHVNDFTTFRGTELSFLVTTHQPTNLVLPSNGSMHNYCPQQTKITSAFKYINTVISCTIFIVGMVGNATLLRIIYQNKCMRNGPNALIASLALGDLIYVVIDLPINVFKLLAGRWPFDHNDFGVFLCKLFPFLQKSSVGITVLNLCALSVDRYRAVASWSRVQGIGIPLVTAIEIVSIWILSFILAIPEAIGFVMVPFEYRGEQHKTCMLNATSKFMEFYQDVKDWWLFGFYFCMPLVCTAIFYTLMTCEMLNRRNGSLRIALSEHLKQRREVAKTVFCLVVIFALCWFPLHLSRILKKTVYNEMDKNRCELLSFLLLMDYIGINLATMNSCINPIALYFVSKKFKNCFQSCLCCCCYQSKSLMTSVPMNGTSIQWKNHDQNNHNTDRSSHKDSMN

Experiments:
[1] = target: Endothelin-1 (Homo sapiens) (UniProt P05305); details: cited from earlier work
[2] = target: T1, C-terminally biotinylated endothelin-1; experiment: ELISA (immobilized purified P9-ETA proteins, bET-1 detected with SA-HRP); details: chain shown with the change; 5 μM bET-1; proteins reconstituted with APG; parent: est. 100; read off a plot
Gαi3 protein, P08754 = target: T2, Gαi3 protein, P08754; experiment: ELISA (immobilized Gαi3, bound P9-ETA detected with anti-P9 antibody); details: chain shown with the change; 1 μM mutant; parent: est. 100; read off a plot

| Molecule | Kd [1] | percent of parent [2] | percent of parent (Gαi3 protein, P08754) |
| --- | --- | --- | --- |
| Endothelin receptor type A (P9-ETA fusion) (from UniProt P25101) | 60 nM |  |  |
| B1 |  | 31 % of w.t | 110 % of w.t |
| B2 |  | 59 % of w.t | 97 % of w.t |
| B3 |  | 26 % of w.t | 140 % of w.t |
| B4 |  | 50 % of w.t | 120 % of w.t |
| B5 |  | 42 % of w.t | 130 % of w.t |
| B6 |  | 66 % of w.t | 93 % of w.t |
| B7 |  | 18 % of w.t | 110 % of w.t |
| B8 |  | 130 % of w.t | 160 % of w.t |
| B9 |  | 3 % of w.t | 120 % of w.t |
| B10 |  | 29 % of w.t | 92 % of w.t |
